The source of these data is paper PMC6718413, “Improving mass spectrometry analysis of protein structures with arginine-selective chemical cross-linkers” (Nature Communications, 2019).

Assay [1] deals with T1, Utp4 (UniProt Q06679 1-776).
T1 construct: Utp4, subunit of UtpA; S. cerevisiae is surmised from PDB 5WLC and the printed residue numbers; also called His6-tagged Utp4; Upt4; source: E. coli BL21(DE3), purified (HisTrap, heparin)
T1 sequence: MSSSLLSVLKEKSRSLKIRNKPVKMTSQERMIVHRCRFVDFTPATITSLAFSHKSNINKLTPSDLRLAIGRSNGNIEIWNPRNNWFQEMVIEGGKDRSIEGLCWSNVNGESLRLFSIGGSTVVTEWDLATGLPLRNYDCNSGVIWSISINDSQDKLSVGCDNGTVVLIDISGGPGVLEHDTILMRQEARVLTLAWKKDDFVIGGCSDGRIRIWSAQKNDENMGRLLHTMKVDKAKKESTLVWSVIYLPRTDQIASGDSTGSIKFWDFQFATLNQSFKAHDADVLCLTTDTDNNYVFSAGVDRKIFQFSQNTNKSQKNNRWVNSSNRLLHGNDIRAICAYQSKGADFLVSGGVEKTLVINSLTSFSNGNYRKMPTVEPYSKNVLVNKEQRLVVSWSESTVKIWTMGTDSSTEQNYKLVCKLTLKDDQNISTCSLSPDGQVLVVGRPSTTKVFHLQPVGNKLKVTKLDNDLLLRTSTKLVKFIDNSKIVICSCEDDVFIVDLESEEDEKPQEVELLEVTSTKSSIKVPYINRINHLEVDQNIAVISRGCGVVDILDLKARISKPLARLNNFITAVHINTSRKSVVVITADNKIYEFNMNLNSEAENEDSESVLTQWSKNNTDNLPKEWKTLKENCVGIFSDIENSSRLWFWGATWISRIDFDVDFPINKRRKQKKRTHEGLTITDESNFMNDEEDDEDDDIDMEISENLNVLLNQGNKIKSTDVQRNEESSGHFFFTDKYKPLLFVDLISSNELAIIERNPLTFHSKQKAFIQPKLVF
The experiment in a line: co-purification; purified Utp5–Utp15 CTD complex, Utp8–Utp9 CTD complex and His6-tagged Utp4 mixed; HisTrap and gel filtration. The following applies: both partners purified. In general terms: Size exclusion chromatography separates by hydrodynamic size, large species first.

Assay [2] concerns the target T1, Utp4. The experiment in a line: cross-linking; UtpA sub-complex (0.5 μg/μL) with 0.5 mM BS^3 at RT for 45 min, quenched with 20 mM NH4HCO3; LC-MS/MS. The following applies: both partners purified.

B1: Utp8–Utp9 CTD complex (complex)
chain 1: DYPKTLTFLLTHPLFPLSRTRNLLSLLRDQPRLFKQAIVTCPNLPLNELLEELFSIRNRELLLDISFRILQDFTRDSIKQEMKKLSKLDVQNFIEFITSGGEDSSPECFNPSQSTQLFQLLSLVLDSIGLFSLEGALLENLTLYIDKQVEIAERNTELWNLIDTKGFQHGFASSTFDNGTSQKRALPTYTMEYLDI
chain 2: QPEVQHEKKETETKINKKVSKSDQVEIANILSSHLEANSTEILDDLMSGSWTEPEIKKFILTKINTVDHLSKIFLTISKSITQNPWNEENLLPLWLKWLLTLKSGELNSIKDKHTKKNCKHLKSALRSSEEILPVLLGIQGRLEMLRRQAKLREDLAQLSMQEGEDDEIEVIEHSNVISNPLQDQASPVEKLEPDSIVYANGESDEFVD
notes: Utp9 residues 361-569, as m17; This complex was formed before it was mixed with His6-Utp4
For the molecule B1, the binding result in the assay with Utp4 [1] is given as “binds”.

B2: Utp5–Utp15 CTD complex (complex)
chain 1: TTGTVTVILSQALQSNDHSLLETVLNNRDERVIRDTIFRLKPALAVILLERLAERIARQTHRQGPLNVWVKWCLIIHGGYLVSIPNLMSTLSSLHSTLKRRSDLLPRLLALDARLDCTINKFKTLNYEAGDIHSSEPVVEEDEDDVEYNEELDDAGLIE
chain 2: RSQRRMRAFERNINQFKWSEALDNAFVPGMAKELTLTVLQELRKRGKVRVALYGRDESTLEPLLNWCLKGIEDVRSASIVADWVAVVLELYGNTLESSPVLQELMIDLKTKVRHEIHKSKEAQRIEGMLQLLTS
notes: Utp5 residues 433-591, as m14; Utp15 residues 380-513, as m15; This complex was formed before it was mixed with His6-Utp4
Consider B2, for which the binding result in the assay with Utp4 [1] is “binds”.

B3: C-terminal domain (CTD) of Utp5 (residue 433-591) (domain or fragment, UniProt Q04177 433-591, looked up)
chain: TTGTVTVILSQALQSNDHSLLETVLNNRDERVIRDTIFRLKPALAVILLERLAERIARQTHRQGPLNVWVKWCLIIHGGYLVSIPNLMSTLSSLHSTLKRRSDLLPRLLALDARLDCTINKFKTLNYEAGDIHSSEPVVEEDEDDVEYNEELDDAGLIE
notes: Utp5, subunit of UtpA, residues 433-591; The tags were cleaved with Ulp1; also called Utp5 CTD
Take B3: the binding result with Utp4 [2] was “binds”.

B4: CTD of Utp15 (residue 380-513) (domain or fragment, UniProt Q04305 380-513, looked up)
chain: RSQRRMRAFERNINQFKWSEALDNAFVPGMAKELTLTVLQELRKRGKVRVALYGRDESTLEPLLNWCLKGIEDVRSASIVADWVAVVLELYGNTLESSPVLQELMIDLKTKVRHEIHKSKEAQRIEGMLQLLTS
notes: Utp15, subunit of UtpA, residues 380-513; The tags were cleaved with Ulp1; also called Utp15 CTD
Consider B4, for which the binding result with Utp4 [2] is “binds”.
